Reference: patent US11155612 (CENTRO DE INVESTIGACI N CIENT FICA Y DE EDUCACI N SUPERIOR …, dated 2021)
Substitutions are numbered along the chain they refer to. Names may count otherwise.

B1: vNAR V13 (parental sequence) (other)
chain: ASLDQTPRTATRETGESLSINCVLTDTSHILFGTKWLWNNPGSTDWESITIGGRYAESVNNQAKSFSLQIKDLTVEDSGTYYCKAQTIGRRKNLLPRPLVNGIAAMGYSSSDYDGAGTVLTVN
B2: vNAR R97A (clone M4) (other)
chain: B1 chain with R97A
B3: vNAR P98Y (clone M1), anti-VEGF vNAR of SEQ ID NO:1 (other)
chain: B1 chain with P98Y

The binders below were run against VEGF (added at 4 ng/ml in the HUVEC/NHDF angiogenesis assay) (assay: cell-based or functional assay).
Sequence of VEGF (added at 4 ng/ml in the HUVEC/NHDF angiogenesis assay) (P15692 whole entry): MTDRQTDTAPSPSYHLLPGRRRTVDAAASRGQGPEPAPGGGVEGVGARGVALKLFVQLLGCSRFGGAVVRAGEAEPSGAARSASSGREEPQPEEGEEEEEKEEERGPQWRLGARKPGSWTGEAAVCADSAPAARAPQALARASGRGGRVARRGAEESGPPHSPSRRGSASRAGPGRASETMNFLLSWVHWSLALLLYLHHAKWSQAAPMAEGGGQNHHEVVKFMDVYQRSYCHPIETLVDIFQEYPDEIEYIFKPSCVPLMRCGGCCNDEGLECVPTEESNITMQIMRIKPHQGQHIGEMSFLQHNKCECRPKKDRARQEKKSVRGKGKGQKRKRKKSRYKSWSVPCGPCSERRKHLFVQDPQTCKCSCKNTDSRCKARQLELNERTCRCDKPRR

| Binder | IC50 angiogenesis: network branching | IC50 angiogenesis: tube length |
| --- | --- | --- |
| B1 | 18 µg/mL | 18 µg/mL |
| B2 | 33 µg/mL | 21 µg/mL |
| B3 | 11 µg/mL | 9 µg/mL |
